Measurements as given in the nanobody polyreactivity screen of Harvey et al. (2022).

Assay: yeast display, Sf9 membrane polyspecificity reagent, FACS + sequencing; frameworks hold sequencing errors
Procedure, shortened: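 Polyreactivity labels are assigned by the sorting gate from which each nanobody was recovered. The gates were low and high (top ~1%), set on anti-HA fluorescence for expression and streptavidin fluorescence for reagent binding. Before sorting, galactose-induced (36–48 hours) yeast display cells were stained for 1 hour at 4 °C with 10% biotinylated, detergent-solubilized Sf9 membrane reagent.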

Sequence	polyreactivity (PSR sort gate)
QVQLVESGGGLVQAGGSLRLSCAASGSTFAIYAMGWYRKSPGKERELVASISGGSTNYADSVKGRFTISRDNAKNTVYLQMNSLKPEDTSVYYCAARGALHHWYRFDYWGQGTQVTLSS	low polyreactivity
QVQLVESGGGLVQAGGSLRLSCAASGSIFSSYAMGWYRQAPGKERELVAGISKSGGSTYYADSVKGRFTISRDNAKNTVYLQMNSQKPEDTAVYYCAGPSYWGGGRYRYGYWGQGTQVTVSS	high polyreactivity
QVQLVESGGGLVQAGGSLRLSCAASGRTFQDNAMGWYRQAPGKERELVAAIRDNGGSTYYADSVKGRFTISRDNAKNTVYLQMNSLKPEDTAVYYCAADQGTGSYDYWGQGTQVTVSS	low polyreactivity
QVQLVESGGGLVQAGGSLRLSCAASGSTFLYYAMGCYRQAPGKDRELVARITTRVGRTYYADSVKGRFTISRDNAKNTVYLQMNSLKPEDTAVYYCNAPYLKSRFRAYYHWGQGTQVTVAS	high polyreactivity
QVQLVESGAGIVQAGGSLRVSSAASGSIFHSYAMGWYRQEPGKERELVAGITYRTGSTYYADSVKGRVTNSRDNAKNTVYFQMNSLKPEDTAVYYCAAGYYSRYFEAFEYYYWGLGTQVTVSS	high polyreactivity
QVQLVESGGGLVQAGGSLRLSCAASGIIFLGYVMGWYRQAPGKERELVAAISSSGGRTYYADSVKGRFTISRDNAKNTVYLQMNSLKPEDTAVYYCARYSYRGTNVRYDYWGQGTQVTVSS	high polyreactivity
QVQLEESGGGLMQAGGNLRLSCAASGYISTHYDMDWYRQAPGRERELVARIDDGAITNYADSVKGRFTISRDNATNTVYLQMNSLKPEDTAVYYCAVYSGDDYYHDYWGQGTQVTVSS	low polyreactivity
QVQLVESGGGLVQAGGSLRLSCAASGLILYTYAMGWSRQAPGQVRELVAAINSGGRTYYADAVKGRFTISRDNAKNTVYLQMNSLKPEDTAVYYCAADYGSRVRGFNYWGQGTQVTVSS	low polyreactivity
QDQLVDSGGGLVQAGGSLRLSCAATGRSFRRYFMGWYIPAPGKERELVAAISYSGATTYYADSVKGRFTISRDYAKNNVYLQMNSLKKEDTAVYYFAATAPGDRYYWGQGTQVTVSS	high polyreactivity
QVQLVESGGGLVQAGGSLRLSCAASGSIFDPNAMGWYRQAPGKERELVAAITSGGGSTYYADSVKGRFTISRDNAKNTVYLQMNSLNPEDTAVYYCNKVFVLPYKFVAWFDYWGQGTQVTVSS	low polyreactivity
QVQLVESGGGLVQAGGSLRLSCAASGRIFYGNAMGWYRQAPGKERELVAAISSGGGSTYYADSVKGRFTISRDNAKNTVYLQMNSLKPEDTAVYYCAADPVHRFPGTGGYWGQGTQVTVSS	low polyreactivity
QVQLVESGGGLVQAGGSLRLSCAASGYIFSYYTMGLYRQAPGKERELVASNRWGGGRTYYADSVKGRFTISRDNAKNTVYLQMNSLKPEDTAVYYCNVKSSRLLDVGRMEYWGQGTQVTVSS	high polyreactivity
QVQLVESGAGLVQAGGSLRLSCAASGRTIGVYAMGWYRQAPGKERELVAAISWSGGTTYYADSVKGRFTISRDNAKNTVYLQMNSLKPEDTAVYYCAADSYTEVDYWGQGTQVTVSS	low polyreactivity
QVQLVESGGGLVQAGGSLRLSCAASGNIFAVNAMGWSRQAPGKERELVARIRYSTGRTYYADSVKGRFTISRDNAKNTVYLQMNSLKPEDTAVYYCATDYYTTRVPGGYDYWGHGTQVTVSS	high polyreactivity
QVQLVESGGGLVQAGGSLRLSCAASGSTFVSNAMGWYRQAPGKERELVAAITTGGSTYYADSVKGRFTISRDNAKNTVYLQMNSLKPEDTAVYYCAADSVLNWFWGYEYWGQGTQVTVSS	low polyreactivity
QVQLQECGGGLVQAGGSLRLSCAASGTFSNSVKWLYCHAPGKEREFVATIGVGGSTNYADSVKGRFTISRDNAKYTVYLQMNSLKPEDTAVYHCAAYGAASNFHYYRGQGTQVTVSS	low polyreactivity
